Key:
[1] = biological target: T1, lysozyme (Gallus gallus, UniProt P00698); test: Fluorescence quenching studies; type: binding, chicken
T1 construct: lysozyme from chicken egg white; purchased Sigma-Aldrich; host or cells: chicken egg white (natural source)
Experimental: The fluorescence emission spectra of the HA-EGCG/lysozyme particles, HA/lysozyme mixtures, free lysozyme alone, free HA-EGCG carrier or free HA alone were measured at an excitation wavelength of 280 nm using a fluorescence spectrophotometer (Hitachi, Japan). Difference spectra between the HA-EGCG/lysozyme particles and HA-EGCG were obtained to determine the net fluorescence of lysozyme in particles of varying HA-EGCG concentrations. The same was done for HA/lysozyme mixtures.

[2] = biological target: T1, lysozyme; test: Lysozyme activity assay (M. lysodeikticus turbidity); type: biochemical, chicken
Experimental: To determine the activity of lysozyme, 20 μl of sample containing either free lysozyme or HA-EGCG/lysozyme particles was added to a well of a 96-well assay plate, followed by 100 μl of M. lysodeikticus (0.15% (w/v) in PBS). The decrease in turbidity was monitored by a Tecan Infinite 200 microplate reader by measuring the absorbance of the sample at 450 nm at room temperature every 3 min for 15 min. The absorbance decay plot was fitted to a linear equation, and the slopes were used to determine iysozyme activity. Regarding the restoration of activity of lysozyme that is complexed with HA-EGCG, the following protocol was used: the HA-EGCG/lysozyme particles were first allowed to self-assemble for 10 min at room temperature, with free lysozyme diluted with PBS as a control. A constant volume of Triton-X of different concentrations was then added to each sample (to a final concentration of 0.001, 0.01 or 0.1% w/v), incubated at room temperature for a further 5 min before the lysozyme substrate, M. lysodeikticus, was added, and the absorbance monitored as described above.

[3] = tested on: HCT-116 cells; test: Cell viability studies (AlamarBlue); type: cell-based, human; details: delivered together with chloroquine; data not shown
Experimental: HCT-116 human colon carcinoma cells were obtained from ATCC, and cultured in McCoy's 5A medium supplemented with 10% FBS and 100 units/mL of penicillin/streptomycin.
HCT-116 cells were seeded at 10,000 cells per well in 96-well microplates with complete growth medium and left to attach for 48 h. Test reagents were prepared by first mixing the linear PEI (polyethylenimine) or chloroquine solution (fixed at 100 μM)) with Granzyme B (fixed at 2 μg/ml) for 15 min before adding HA-EGCG solution to the mixture and allow complexation to take place for 45 min. The medium in the wells was then aspirated and the cells were treated with the respective reagents for 48 h (all dilutions were made in serum-free medium). Cell viability was analyzed using AlamarBlue. Before analysis, the medium was aspirated and the cells were gently washed with PBS once before a mixture of 10 μl of alamarblue reagent with 100 μl of serum-containing medium was added to each well. The cells were incubated for 2 h and the fluorescence emission of each well was measured using a Tecan infinite Microplate Reader. The viabilities of treated cells were evaluated as a percentage of the negative control. Each data set is an average of 4 repeats.

T1 sequence (P00698 19-147): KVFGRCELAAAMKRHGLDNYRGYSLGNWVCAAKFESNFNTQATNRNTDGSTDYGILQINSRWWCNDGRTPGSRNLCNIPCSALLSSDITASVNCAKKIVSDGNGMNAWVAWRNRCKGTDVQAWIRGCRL

Question: With (−)-epigallocatechin gallate [EGCG] as the molecule, how does the “quenching of intrinsic lysozyme fluorescence” value ([1]; EX 280 nm, concentration-dependent (FIG. 5)) read?
Answer: The value was “can quench the intrinsic fluorescence of lysozyme”.

Question: And the “quenching of intrinsic lysozyme fluorescence at the same EGCG concentration” value ([1]; free EGCG vs HA-EGCG (FIG. 7))?
Answer: Its value is “quenches intrinsic lysozyme fluorescence to a smaller degree than HA-EGCG”.

Question: For “free lysozyme: lysozyme from chicken egg white, model protein”, which apparent lysozyme activity ([2]; 0.001% w/v Triton-X, % of original activity of free lysozyme (FIG. 9b)) is on record?
Answer: Its apparent lysozyme activity is 140%.

Question: What about the “maximum apparent lysozyme activity (plateau)” value ([2]; 0.01% and 0.1% Triton-X (FIG. 9b)) of the same molecule?
Answer: The value was “about 160%”.

B1: Granzyme: protease secreted by cytotoxic T lymphocytes, activates caspase and induces apoptosis (protein, UniProt P04187 21-247, looked up)
Granzyme B(G,H): IIGGHEVKPHSRPYMALLSIKDQQPEAICGGFLIREDFVLTAAHCEGSIINVTLGAHNIKEQEKTQQVIPMVKCIPHPDYNPKTFSNDIMLLKLKSKAKRTRAVRPLNLPRRNVNVKPGDVCYVAGWGRMAPMGKYSNTLQEVELTVQKDRECESYFKNRYNKTNQICAGDPKTKRASFRGDSGGPLVCKKVAAGIVSYGYKDGSPPRAFTKVSSFLSWIKKTMKSS
Question: B1 was tested. Which “cytotoxicity in HCT-116 cells” value [3] did it give?
Answer: The value was “induced cytotoxicity in HCT-116 cells”.
